According to patent US20190134161A1 (PEGBIO, published 2019):

Biological target: glucagon receptor
Assay: cell-based or functional assay

In the case of HSQGTFTSDYSKYLDSRRAQDFVQWLMNTC [PB-740], the “In Vitro EC50 (cAMP release, HEK293 cells stably expressing the glucagon receptor, cAMP ELISA)” value is reported as 1.45 nM.

B1: PB-721 (peptide)
peptide: HSQGTFTSDYSKYLDSRRAQDFVQWLMNTC
modifications: not fully specified; mPEG-23 KD-ppMAL conjugated to PB-740 (cysteine added after the 29th amino acid)
With B1 the “In Vitro EC50 (cAMP release, HEK293 cells stably expressing the glucagon receptor, cAMP ELISA)” value was 6.94 nM.
